Laboratory results as given in PMC3351836 (Science (New York, N.y.), 2011).

B1: 3BNC60 (antibody, V domains shown)
VH: QVHLSQSGAAVTKPGASVRVSCEASGYKISDHFIHWWRQAPGQGLQWVGWINPKTGQPNNPRQFQGRVSLTRQASWDFDTYSFYMDLKAVRSDDTAIYFCARQRSDFWDFDVWGSGTQVTVSS
VL: DIQMTQSPSSLSARVGDTVTITCQANGYLNWYQQRRGKAPKLLIYDGSKLERGVPARFSGRRWGQEYNLTINNLQPEDVATYFCQVYEFIVPGTRLDLK
B2: NIH45-46 (antibody, V domains shown)
VH: QVRLSQSGGQMKKPGESMRLSCRASGYEFLNCPINWIRLAPGRRPEWMGWLKPRGGAVNYARKFQGRVTMTRDVYSDTAFLELRSLTSDDTAVYFCTRGKYCTARDYYNWDFEHWGRGAPVTVSS
VL: EIVLTQSPATLSLSPGETAIISCRTSQSGSLAWYQQRPGQAPRLVIYSGSTRAAGIPDRFSGSRWGADYNLSISNLESGDFGVYYCQQYEFFGQGTKVQVD

Biological target: YU2-gp120 (HIV-1 group M subtype B, isolate YU-2, UniProt P35961)
Assay: ELISA

Row | Binder | binding result
1 | B1 | binds
2 | B2 | binds
